Experimental data taken from patent US11549123B2, “Plant EPSP synthases and methods of use” (PIONEER HI-BRED INTERNATIONAL, INC., priority 2015, dated 2023).

Legend:
Type in all cases: biochemical, Zea mays
[1] = substrate: C=C(OP(=O)(O)O)C(=O)O; assay: Substrate saturation analysis with glyphosate (Example 8), Zm-H6; details: other: substrate saturation, pH 7.0
From the text: Generally, (kcat/KM)*KI is obtained by performing substrate saturation analysis in the absence and presence of inhibitor. However, that analysis takes longer. […] To validate the method, (kcat/KM)*KI was quantified using both methods—traditional (saturation) and the instant method (rapid), for variants of maize 5-enolpyruvylshikimate-3-phosphate synthase (EPSPS) and its competitive inhibitor, glyphosate.
The amino acid sequence of mature Zea mays EPSPS was obtained from GenBank entry CAA44974.1 (SEQ ID NO:2). A nucleotide sequence was created to add an N-terminal methionine and to optimize codon usage for expression in E. coli. The synthesized gene was cloned into an expression vector that provides a T7 promoter driving expression of the protein and a 10× N-terminal histidine tag. Variants selected for this study include native maize EPSPS and variants generated by a gene shuffling cascade described herein. […] Protein concentration was determined by absorbance at 280 nm using an extinction coefficient of 0.676 OD/mg/m L. The proteins were normalized to 0.5 mg/mL for assay.
EPSPS activity was determined by quantifying the phosphate generated by the reaction. […] The absorbance change that occurs was monitored continuously at 360 nm, where the extinction is 11,200 M-1 cm-1, with a Spectramax plate reader (Molecular Devices). […]

[2] = substrate: C=C(OP(=O)(O)O)C(=O)O; assay: Substrate saturation kinetic analysis with glyphosate, H6-A69V; details: other: substrate saturation
[3] = substrate: C=C(OP(=O)(O)O)C(=O)O; assay: Substrate saturation kinetic analysis with glyphosate, H6-A76V; details: other: substrate saturation
[4] = substrate: C=C(OP(=O)(O)O)C(=O)O; assay: Substrate saturation kinetic analysis with glyphosate, H6-D196V; details: other: substrate saturation
[5] = substrate: C=C(OP(=O)(O)O)C(=O)O; assay: Substrate saturation kinetic analysis with glyphosate, H6-H54E; details: other: substrate saturation
[6] = substrate: C=C(OP(=O)(O)O)C(=O)O; assay: Substrate saturation kinetic analysis with glyphosate, H6-K246G; details: other: substrate saturation
[7] = substrate: C=C(OP(=O)(O)O)C(=O)O; assay: Substrate saturation kinetic analysis with glyphosate, H6-A36G; details: other: substrate saturation
[8] = substrate: C=C(OP(=O)(O)O)C(=O)O; assay: Substrate saturation kinetic analysis with glyphosate, H6-V87T; details: other: substrate saturation
[9] = substrate: C=C(OP(=O)(O)O)C(=O)O; assay: Substrate saturation kinetic analysis with glyphosate, Zm-P107S; details: other: substrate saturation

B1: Zea mays EPSPS variant Zm-H6 (868-H6) (Zea mays; A1R/A3W/A415G/A71Q/D401G/E301S/E390G/G101A/I207L/K83R/L97C/T278A/T360S/T440Q/V437R) (protein)
chain: MRGWEEIVLQPIKEISGTVKLPGSKSLSNRILLLAALSEGTTVVDNLLNSEDVHYMLGALRTLGLSVEADKQAKRAVVVGCGGRFPVEDAKEEVQLFCGNAATAMRPLTAAVTAAGGNATYVLDGVPRMRERPIGDLVVGLKQLGADVDCFLGTDCPPVRVNGIGGLPGGKVKLSGSISSQYLSALLMAAPLALGDVEIEIIDKLISLPYVEMTLRLMERFGVKAEHSDSWDRFYIKGGQKYKSPKNAYVEGDASSASYFLAGAAITGGTVTVEGCGTASLQGDVKFAEVLEMMGAKVTWTSTSVTVTGPPREPFGRKHLKAIDVNMNKMPDVAMTLAVVALFADGPTAIRDVASWRVKESERMVAIRTELTKLGASVEEGPDYCIITPPGKLNVTAIDTYGDHRMAMAFSLAACGEVPVTIRDPGCTRKTFPDYFDRLSQFVKN
[1]
  Km: 20.6 µM
  kcat: 3.3 s⁻¹

B2: Zea mays EPSPS variant Zm-H6 (868-H6) with A69V (H6-A69V) (Zea mays; A1R/A3W/A415G/A68V/A71Q/D401G/E301S/E390G/G101A/I207L/K83R/L97C/T278A/T360S/T440Q/V437R) (protein)
chain: MRGWEEIVLQPIKEISGTVKLPGSKSLSNRILLLAALSEGTTVVDNLLNSEDVHYMLGALRTLGLSVEVDKQAKRAVVVGCGGRFPVEDAKEEVQLFCGNAATAMRPLTAAVTAAGGNATYVLDGVPRMRERPIGDLVVGLKQLGADVDCFLGTDCPPVRVNGIGGLPGGKVKLSGSISSQYLSALLMAAPLALGDVEIEIIDKLISLPYVEMTLRLMERFGVKAEHSDSWDRFYIKGGQKYKSPKNAYVEGDASSASYFLAGAAITGGTVTVEGCGTASLQGDVKFAEVLEMMGAKVTWTSTSVTVTGPPREPFGRKHLKAIDVNMNKMPDVAMTLAVVALFADGPTAIRDVASWRVKESERMVAIRTELTKLGASVEEGPDYCIITPPGKLNVTAIDTYGDHRMAMAFSLAACGEVPVTIRDPGCTRKTFPDYFDRLSQFVKN
[2]
  Km: 21.1 µM
  kcat: 2.68 s⁻¹

B3: Zea mays EPSPS variant Zm-H6 (868-H6) with A76V (H6-A76V) (Zea mays; A1R/A3W/A415G/A71Q/A75V/D401G/E301S/E390G/G101A/I207L/K83R/L97C/T278A/T360S/T440Q/V437R) (protein)
chain: MRGWEEIVLQPIKEISGTVKLPGSKSLSNRILLLAALSEGTTVVDNLLNSEDVHYMLGALRTLGLSVEADKQAKRVVVVGCGGRFPVEDAKEEVQLFCGNAATAMRPLTAAVTAAGGNATYVLDGVPRMRERPIGDLVVGLKQLGADVDCFLGTDCPPVRVNGIGGLPGGKVKLSGSISSQYLSALLMAAPLALGDVEIEIIDKLISLPYVEMTLRLMERFGVKAEHSDSWDRFYIKGGQKYKSPKNAYVEGDASSASYFLAGAAITGGTVTVEGCGTASLQGDVKFAEVLEMMGAKVTWTSTSVTVTGPPREPFGRKHLKAIDVNMNKMPDVAMTLAVVALFADGPTAIRDVASWRVKESERMVAIRTELTKLGASVEEGPDYCIITPPGKLNVTAIDTYGDHRMAMAFSLAACGEVPVTIRDPGCTRKTFPDYFDRLSQFVKN
[3]
  Km: 45.2 µM
  kcat: 3.48 s⁻¹

B4: Zea mays EPSPS variant Zm-H6 (868-H6) with D196V (H6-D196V) (Zea mays; A1R/A3W/A415G/A71Q/D195V/D401G/E301S/E390G/G101A/I207L/K83R/L97C/T278A/T360S/T440Q/V437R) (protein)
chain: MRGWEEIVLQPIKEISGTVKLPGSKSLSNRILLLAALSEGTTVVDNLLNSEDVHYMLGALRTLGLSVEADKQAKRAVVVGCGGRFPVEDAKEEVQLFCGNAATAMRPLTAAVTAAGGNATYVLDGVPRMRERPIGDLVVGLKQLGADVDCFLGTDCPPVRVNGIGGLPGGKVKLSGSISSQYLSALLMAAPLALGVVEIEIIDKLISLPYVEMTLRLMERFGVKAEHSDSWDRFYIKGGQKYKSPKNAYVEGDASSASYFLAGAAITGGTVTVEGCGTASLQGDVKFAEVLEMMGAKVTWTSTSVTVTGPPREPFGRKHLKAIDVNMNKMPDVAMTLAVVALFADGPTAIRDVASWRVKESERMVAIRTELTKLGASVEEGPDYCIITPPGKLNVTAIDTYGDHRMAMAFSLAACGEVPVTIRDPGCTRKTFPDYFDRLSQFVKN
notes: shuffled variant 868-H6 plus D196V; E. coli BL21(DE3), Ni-NTA purified
[4]
  Km: 61.8 µM
  kcat: 2.73 s⁻¹

B5: Zea mays EPSPS variant Zm-H6 (868-H6) with H54E (H6-H54E) (Zea mays; A1R/A3W/A415G/A71Q/D401G/E301S/E390G/G101A/H53E/I207L/K83R/L97C/T278A/T360S/T440Q/V437R) (protein)
chain: MRGWEEIVLQPIKEISGTVKLPGSKSLSNRILLLAALSEGTTVVDNLLNSEDVEYMLGALRTLGLSVEADKQAKRAVVVGCGGRFPVEDAKEEVQLFCGNAATAMRPLTAAVTAAGGNATYVLDGVPRMRERPIGDLVVGLKQLGADVDCFLGTDCPPVRVNGIGGLPGGKVKLSGSISSQYLSALLMAAPLALGDVEIEIIDKLISLPYVEMTLRLMERFGVKAEHSDSWDRFYIKGGQKYKSPKNAYVEGDASSASYFLAGAAITGGTVTVEGCGTASLQGDVKFAEVLEMMGAKVTWTSTSVTVTGPPREPFGRKHLKAIDVNMNKMPDVAMTLAVVALFADGPTAIRDVASWRVKESERMVAIRTELTKLGASVEEGPDYCIITPPGKLNVTAIDTYGDHRMAMAFSLAACGEVPVTIRDPGCTRKTFPDYFDRLSQFVKN
notes: 868-H6 plus H54E; E. coli BL21(DE3), Ni-NTA purified
[5]
  Km: 27.9 µM
  kcat: 4.13 s⁻¹

B6: Zea mays EPSPS variant Zm-H6 (868-H6) with K246G (H6-K246G) (Zea mays; A1R/A3W/A415G/A71Q/D401G/E301S/E390G/G101A/I207L/K245G/K83R/L97C/T278A/T360S/T440Q/V437R) (protein)
chain: MRGWEEIVLQPIKEISGTVKLPGSKSLSNRILLLAALSEGTTVVDNLLNSEDVHYMLGALRTLGLSVEADKQAKRAVVVGCGGRFPVEDAKEEVQLFCGNAATAMRPLTAAVTAAGGNATYVLDGVPRMRERPIGDLVVGLKQLGADVDCFLGTDCPPVRVNGIGGLPGGKVKLSGSISSQYLSALLMAAPLALGDVEIEIIDKLISLPYVEMTLRLMERFGVKAEHSDSWDRFYIKGGQKYKSPGNAYVEGDASSASYFLAGAAITGGTVTVEGCGTASLQGDVKFAEVLEMMGAKVTWTSTSVTVTGPPREPFGRKHLKAIDVNMNKMPDVAMTLAVVALFADGPTAIRDVASWRVKESERMVAIRTELTKLGASVEEGPDYCIITPPGKLNVTAIDTYGDHRMAMAFSLAACGEVPVTIRDPGCTRKTFPDYFDRLSQFVKN
notes: 868-H6 plus K246G; E. coli BL21(DE3), Ni-NTA purified
[6]
  Km: 24.0 µM
  kcat: 3.5 s⁻¹

B7: Zea mays EPSPS variant Zm-H6 (868-H6) with A36G (H6-A36G) (Zea mays; A1R/A35G/A3W/A415G/A71Q/D401G/E301S/E390G/G101A/I207L/K83R/L97C/T278A/T360S/T440Q/V437R) (protein)
chain: MRGWEEIVLQPIKEISGTVKLPGSKSLSNRILLLAGLSEGTTVVDNLLNSEDVHYMLGALRTLGLSVEADKQAKRAVVVGCGGRFPVEDAKEEVQLFCGNAATAMRPLTAAVTAAGGNATYVLDGVPRMRERPIGDLVVGLKQLGADVDCFLGTDCPPVRVNGIGGLPGGKVKLSGSISSQYLSALLMAAPLALGDVEIEIIDKLISLPYVEMTLRLMERFGVKAEHSDSWDRFYIKGGQKYKSPKNAYVEGDASSASYFLAGAAITGGTVTVEGCGTASLQGDVKFAEVLEMMGAKVTWTSTSVTVTGPPREPFGRKHLKAIDVNMNKMPDVAMTLAVVALFADGPTAIRDVASWRVKESERMVAIRTELTKLGASVEEGPDYCIITPPGKLNVTAIDTYGDHRMAMAFSLAACGEVPVTIRDPGCTRKTFPDYFDRLSQFVKN
[7]
  Km: 30.8 µM
  kcat: 4.1 s⁻¹

B8: Zea mays EPSPS variant Zm-H6 (868-H6) with V87T (H6-V87T) (Zea mays; A1R/A3W/A415G/A71Q/D401G/E301S/E390G/G101A/I207L/K83R/L97C/T278A/T360S/T440Q/V437R/V86T) (protein)
chain: MRGWEEIVLQPIKEISGTVKLPGSKSLSNRILLLAALSEGTTVVDNLLNSEDVHYMLGALRTLGLSVEADKQAKRAVVVGCGGRFPTEDAKEEVQLFCGNAATAMRPLTAAVTAAGGNATYVLDGVPRMRERPIGDLVVGLKQLGADVDCFLGTDCPPVRVNGIGGLPGGKVKLSGSISSQYLSALLMAAPLALGDVEIEIIDKLISLPYVEMTLRLMERFGVKAEHSDSWDRFYIKGGQKYKSPKNAYVEGDASSASYFLAGAAITGGTVTVEGCGTASLQGDVKFAEVLEMMGAKVTWTSTSVTVTGPPREPFGRKHLKAIDVNMNKMPDVAMTLAVVALFADGPTAIRDVASWRVKESERMVAIRTELTKLGASVEEGPDYCIITPPGKLNVTAIDTYGDHRMAMAFSLAACGEVPVTIRDPGCTRKTFPDYFDRLSQFVKN
notes: 868-H6 plus V87T; E. coli BL21(DE3), Ni-NTA purified
[8]
  Km: 27.5 µM
  kcat: 4.32 s⁻¹

B9: Zea mays EPSPS variant Zm-P107S (Zea mays; P106S) (protein)
chain: MAGAEEIVLQPIKEISGTVKLPGSKSLSNRILLLAALSEGTTVVDNLLNSEDVHYMLGALRTLGLSVEADKAAKRAVVVGCGGKFPVEDAKEEVQLFLGNAGTAMRSLTAAVTAAGGNATYVLDGVPRMRERPIGDLVVGLKQLGADVDCFLGTDCPPVRVNGIGGLPGGKVKLSGSISSQYLSALLMAAPLALGDVEIEIIDKLISIPYVEMTLRLMERFGVKAEHSDSWDRFYIKGGQKYKSPKNAYVEGDASSASYFLAGAAITGGTVTVEGCGTTSLQGDVKFAEVLEMMGAKVTWTETSVTVTGPPREPFGRKHLKAIDVNMNKMPDVAMTLAVVALFADGPTAIRDVASWRVKETERMVAIRTELTKLGASVEEGPDYCIITPPEKLNVTAIDTYDDHRMAMAFSLAACAEVPVTIRDPGCTRKTFPDYFDVLSTFVKN
notes: native maize plus P107S; E. coli BL21(DE3), Ni-NTA purified
[9]
  Km: 14.8 µM
  kcat: 29.97 s⁻¹
